Assay results published in PMC6579858.

Test: FACS of transfected HeLa
Conditions: glycan lost; control: wild type MOG

B1: myelin oligodendrocyte glycoprotein (MOG): N31A (protein)
parent chain: MASLSRPSLPSCLCSFLLLLLLQVSSSYAGQFRVIGPRHPIRALVGDEVELPCRISPGKNATGMEVGWYRPPFSRVVHLYRNGKDQDGDQAPEYRGRTELLKDAIGEGKVTLRIRNVRFSDEGGFTCFFRDHSYQEEAAMELKVEDPFYWVSPGVLVLLAVLPVLLLQITVGLIFLCLQYRLRGKLRAEIENLHRTFDPHFLRVPCWKITLFVIVPVLGPLVALIICYNWLHRRLAGQFLEELRNPF
expression_or_secretion: no change

B2: myelin oligodendrocyte glycoprotein (MOG): N31D (protein)
parent chain: MASLSRPSLPSCLCSFLLLLLLQVSSSYAGQFRVIGPRHPIRALVGDEVELPCRISPGKNATGMEVGWYRPPFSRVVHLYRNGKDQDGDQAPEYRGRTELLKDAIGEGKVTLRIRNVRFSDEGGFTCFFRDHSYQEEAAMELKVEDPFYWVSPGVLVLLAVLPVLLLQITVGLIFLCLQYRLRGKLRAEIENLHRTFDPHFLRVPCWKITLFVIVPVLGPLVALIICYNWLHRRLAGQFLEELRNPF
expression_or_secretion: no change
